Source: article PMC6289460

Test system: ArdK (intact) (Escherichia coli A56-1S (plasmid pA56-1S))
Test: BLI
Conditions: EMSA: 20 mM Tris pH 7.5, 100 mM KCl, 2 mM DTT, 10 mM EDTA, 50 mg/L poly(dI-dC), 20 C, 20 min, 3 fmol probe, 30 pmol protein; BLI: 1x kinetics buffer (Pall …)

## 107 bp probe upstream of blaIMP-6
  Kd: 29.3 nM
